Test results taken from patent US20210386829A1, “COMPOSITIONS AND METHODS FOR MODULATING CGRP SIGNALING TO REGULATE INNATE LYMPHOID CELL INFLAMMATORY RESPONSES” (The Broad Institute, Inc., priority 2018, published 2021).

Legend:
lung ILCs [1] = assay: culture of sort-purified lung ILCs with IL-7, IL-33 or IL-25+NMU with or without CGRP (qPCR, LegendPlex, intracellular cytokine staining); assay type: cell-based, mouse; conditions: short-term (8 hours) IL-33 alone, no CGRP
Experimental: (§1) ILC in vitro culture. For in vitro experiments 5,000 ILCs/well were cultured in a 96 well round bottom plate with 20 ng/ml IL-7 (R&D Systems), 200 ng/ml IL-25 (R&D Systems) or 20 ng/ml, 2 ng/ml or 0.2 ng/ml IL-33 (BioLegend) with or without 1 μg/ml Neuromedin U (US Biological). In some cases purified CD90.2^+ lung cells were first labeled with CellTrace Violet (Thermo Fisher Scientific), then sorted as described above, and cultured for 3 days under the indicated conditions.
Quantitative real-time PCR. RNA was isolated using RNeasy Plus Mini Kit (Qiagen) and reverse transcribed to cDNA with iScript cDNA Synthesis Kit (Bio-Rad). Gene expression was analyzed by quantitative real-time PCR on a ViiA7 System (Thermo Fisher Scientific) using TaqMan Fast Advanced Master Mix (Thermo Fisher Scientific) with the following primer/probe sets: Il5 (Mm00439646_m1), Il13 (Mm00434204_m1), Il17rb (Mm00444709_m1), Nmur1 (Mm04207994_m1), Nmur2 (Mm00600704_m1), Nmu (Mm00479868_m1) and Actb (Applied Biosystems). Expression values were calculated relative to Actb detected in the same sample by duplex qPCR.
Cytokine quantification. Cytokine concentrations in BAL fluid, lung and supernatant of in vitro ILC cultures were analyzed by the LegendPlex Mouse Th Cytokine Panel (13-plex) (BioLegend) according to the manufacturer's instructions and analyzed on a FACS Calibur (BD Biosciences).
Culture of innate lymphoid cells. Sort-purified innate lymphoid cells (ILCs) were cultured under sterile conditions in complete medium in a humidified incubator at 37° C. and 10% CO2. ILCs were plated at a density of 3,000-5,000 ILCs per well in a 96 well round-bottom plate in cell culture medium with 20 ng/ml IL-7. Depending on the experiment, different combinations of 200 ng/ml IL-25, 200 ng/ml IL-33, 1 ug/ml NMU and 100 nM CGRP were added either at start or after overnight culture with 20 ng/ml IL-7. […]
For flow cytometric analysis, lung cells were transferred into a 96 well V-bottom plate and stained with surface antibodies for 20 min at 4° C. in the dark. Cells were washed twice with DPBS containing 2% fetal bovine serum and transferred into 1.2 ml tubes for analysis by flow cytometry. For intracellular cytokine staining, cells were incubated in complete cell culture medium with 50 ng/ml phorbol 12-myristate 13-acetate (Sigma-Aldrich), 1 uM ionomycin (Sigma-Aldrich) and GolgiStop (Cat #554724; BD Biosciences) in a humidified incubator at 37° C. and 10% CO2. After 5 hours, cells were transferred into 96 well V-bottom plate, stained with Fixable Viability Dye eFluor 506 (Cat #65-0866-14; Thermo Fisher) and surface antibodies for 20 min at 4° C. in the dark and washed twice with DPBS containing 2% fetal bovine serum. Then, cells were incubated with BD Cytofix/Cytoperm Buffer (Cat #51-2090KZ; BD Biosciences) for 20 min, followed by a wash with BD Perm/Wash Buffer (Cat #51-2091KZ; BD Biosciences). Subsequently, cells were incubated with antibodies targeting intracellular proteins diluted in BD Perm/Wash Buffer for 20 min and after two wash steps, transferred into 1.2 ml tubes for analysis by flow cytometry. For ki67 staining, cells were stained for surface antibodies as described above, fixed with a solution of Fixation/Permeabilization Concentrate (Cat #00-5123-43; Invitrogen) and Fixation/Perm Diluent (Cat #00-5223-56; Invitrogen) for 20 min, washed with Permeabilization Buffer (Cat #00-8333-56; Invitrogen). Then, cells were incubated with ki67 antibody diluted in Permeabilization Buffer for 20 min, washed and transferred into FACS tubes. Cells were analyzed on a BD LSRFortessa (BD Biosciences) flow cytometer with 5 lasers (355 nm, 405 nm, 488 nm, 561 nm and 640 nm). Data was analyzed using FlowJo v10.5.0 software and cell populations were gated as described previously (Wallrapp 2017).
RNA isolation and cDNA synthesis. […]

lung ILCs [2] = assay: CellTrace Violet proliferation assay of sort-purified lung ILCs; assay type: cell-based, mouse; conditions: 3 days
Experimental: as §1
Proliferation assay. Lung cells were isolated and enriched for CD90.2 cells as described above, followed by labeling with CellTrace Violet (Cat #C34557; Thermo Fisher Scientific) according to manufacturer's instructions and subsequently stained with antibodies. After 3-day culture of sort-purified ILCs with 20 ng/ml IL-7 either alone or in combination with 200 ng/ml IL-33, 100 pM CGRP or 100 nM CGRP followed by staining, expression of CellTrace Violet in live (7AAD−) ILCs was analyzed on a BD LSRFortessa (BD Biosciences).

B1: IL-33: alarmin cytokine which activates ILC2s and induces their proliferation; used as stimulus (protein, UniProt Q8BVZ5 1-266, looked up)
Interleukin-33: MRPRMKYSNSKISPAKFSSTAGEALVPPCKIRRSQQKTKEFCHVYCMRLRSGLTIRKETSYFRKEPTKRYSLKSGTKHEENFSAYPRDSRKRSLLGSIQAFAASVDTLSIQGTSLLTQSPASLSTYNDQSVSFVLENGCYVINVDDSGKDQEQDQVLLRYYESPCPASQSGDGVDGKKLMVNMSPIKDTDIWLHANDKDYSVELQRGDVSPPEQAFFVLHKKSSDFVSFECKNLPGTYIGVKDNQLALVEEKDESCNNIMFKLSKI
frequency of IL-13-positive ILC2s (intracellular cytokine staining) (lung ILCs [1]): ~13% | ILC2 proliferation (lung ILCs [2]; IL-7+IL-33 vs IL-7 alone, absent CGRP): induced significant ILC2 proliferation | IL-33-activated ILCs that divided at least once (lung ILCs [2]; IL-7+IL-33 without CGRP): approximately 55%
